Reference: paper PMC4132270, “Compartmentalized self-replication under fast PCR cycling conditions yields Taq DNA polymerase mutants with increased DNA-binding affinity and blood resistance”

Assays:
Taq E507K = Taq E507K (Thermus aquaticus, UniProt P19821 1-832, E507K); assay: EMSA; 95 mM KCl; 0.25 nM hairpin, 0.5-1000 nM enzyme, 1x Taq buffer (50 mM KCl for wild type, 95 mM KCl for mutants; full composition and pH not stated for this assay), 37 C, 30; details: protein: recombinant, label: 5' 33P, recessed 3' end, 5' overhang
[1] = molecular target: Taq DNA polymerase (wild type) (Thermus aquaticus, UniProt P19821 1-832); assay: EMSA; 50 mM KCl (enzyme's KCl optimum); 0.25 nM hairpin, 0.5-1000 nM enzyme, 1x Taq buffer (50 mM KCl for wild type, 95 mM KCl for mutants; full composition and pH not stated for this assay), 37 C, 30; details: protein: recombinant, tags: none (His tag removed, pET11), label: 5' 33P, recessed 3' end, 5' overhang
Taq G59W = Taq G59W (Thermus aquaticus, UniProt P19821 1-832, G59W); assay: EMSA; 95 mM KCl (Methods: all assays with Taq mutants); text gives 91 nM; 0.25 nM hairpin, 0.5-1000 nM enzyme, 1x Taq buffer (50 mM KCl for wild type, 95 mM KCl for mutants; full composition and pH not stated for this assay), 37 C, 30; details: protein: recombinant, label: 5' 33P, recessed 3' end, 5' overhang

B1: hairpin primer-template (structured_DNA)
DNA: CTCCAGACACGACGCAGTTGCCCGATGGTCGACGTTCGCGAAAGCGAACGTCGACCATCGGGCAACT
modifications: 3' end blocked with dideoxy TMP (3' ddT; unclear whether the printed 3' T is the ddT or it is added)
Q: B1 was tested. Which Kd (Taq E507K) did it give?
A: The Kd was 0.0011 µM.

Q: And the Kd [1]?
A: Its Kd is 0.102 µM.

Q: And the Kd (Taq G59W)?
A: Its Kd is 0.0916 µM.
